Data as given in publication doi:10.1101/2023.09.20.558662 (bioRxiv, 2023).
Each block holds one binder with its values, some of them ahead of it.

Assays:
[1] = biological target: the molecule itself; test: cryo-EM structure
[2] = biological target: CUL3 N-terminal domain (CUL3^NTD, residues 1-381) (UniProt Q13618 1-381); test: BLI
Chain of CUL3 N-terminal domain (CUL3^NTD, residues 1-381) (Q13618 1-381): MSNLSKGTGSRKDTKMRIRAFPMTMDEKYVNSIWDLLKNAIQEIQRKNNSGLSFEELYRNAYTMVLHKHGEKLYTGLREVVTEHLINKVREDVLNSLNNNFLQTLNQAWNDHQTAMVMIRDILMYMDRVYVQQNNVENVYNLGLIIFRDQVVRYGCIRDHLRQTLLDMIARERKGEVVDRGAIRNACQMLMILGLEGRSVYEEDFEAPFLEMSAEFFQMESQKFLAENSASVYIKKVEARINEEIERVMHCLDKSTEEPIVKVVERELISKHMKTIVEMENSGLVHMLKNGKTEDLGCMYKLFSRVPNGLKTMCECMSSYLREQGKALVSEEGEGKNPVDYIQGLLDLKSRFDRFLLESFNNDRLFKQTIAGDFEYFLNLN

B1: KCTD5 (full-length, purified; SEC and cryo-EM samples) (natural protein)
chain: MAENHCELLSPARGGIGAGLGGGLCRRCSAGLGALAQRPGSVSKWVRLNVGGTYFLTTRQTLCRDPKSFLYRLCQADPDLDSDKDETGAYLIDRDPTYFGPVLNYLRHGKLVINKDLAEEGVLEEAEFYNITSLIKLVKDKIRERDSKTSQVPVKHVYRVLQCQEEELTQMVSTMSDGWKFEQLVSIGSSYNYGNEDQAEFLCVVSKELHNTPYGTASEPSEKAKILQERGSRM
- stoichiometry N [1]: 5

- binding result [2]: binds
B2: KCTD5 L161R (natural protein)
chain: MAENHCELLSPARGGIGAGLGGGLCRRCSAGLGALAQRPGSVSKWVRLNVGGTYFLTTRQTLCRDPKSFLYRLCQADPDLDSDKDETGAYLIDRDPTYFGPVLNYLRHGKLVINKDLAEEGVLEEAEFYNITSLIKLVKDKIRERDSKTSQVPVKHVYRVRQCQEEELTQMVSTMSDGWKFEQLVSIGSSYNYGNEDQAEFLCVVSKELHNTPYGTASEPSEKAKILQERGSRM

- Kd [2]: 30 nM
B3: Thioredoxin-fusion KCTD5 (natural protein)
chain: MAENHCELLSPARGGIGAGLGGGLCRRCSAGLGALAQRPGSVSKWVRLNVGGTYFLTTRQTLCRDPKSFLYRLCQADPDLDSDKDETGAYLIDRDPTYFGPVLNYLRHGKLVINKDLAEEGVLEEAEFYNITSLIKLVKDKIRERDSKTSQVPVKHVYRVLQCQEEELTQMVSTMSDGWKFEQLVSIGSSYNYGNEDQAEFLCVVSKELHNTPYGTASEPSEKAKILQERGSRM
